Measurements: patent US20240369575A1 (Genentech, published 2024)
Where two headings read alike, the source gives them in different places.

Legend:
[1] = molecular target: T1, RIP2 modified by mixed and/or branched K63-linked and linear ubiquitin chains (UniProt P0CG48 1-76); experiment: IP from THP1 cells untreated or treated with MDP (1 ug/ml, 30 min), 6 M urea lysis; western blot RIP2
T1 construct: mature; also called modified RIP2; K63- and linear chain-ubiquitinated RIP2

RIP3 [2] = experiment: IP from HT29 WT or RIP1 KO cells with or without TBZ; western blot RIP3
Chain of RIP3 (chain, as listed by the source limits assumed): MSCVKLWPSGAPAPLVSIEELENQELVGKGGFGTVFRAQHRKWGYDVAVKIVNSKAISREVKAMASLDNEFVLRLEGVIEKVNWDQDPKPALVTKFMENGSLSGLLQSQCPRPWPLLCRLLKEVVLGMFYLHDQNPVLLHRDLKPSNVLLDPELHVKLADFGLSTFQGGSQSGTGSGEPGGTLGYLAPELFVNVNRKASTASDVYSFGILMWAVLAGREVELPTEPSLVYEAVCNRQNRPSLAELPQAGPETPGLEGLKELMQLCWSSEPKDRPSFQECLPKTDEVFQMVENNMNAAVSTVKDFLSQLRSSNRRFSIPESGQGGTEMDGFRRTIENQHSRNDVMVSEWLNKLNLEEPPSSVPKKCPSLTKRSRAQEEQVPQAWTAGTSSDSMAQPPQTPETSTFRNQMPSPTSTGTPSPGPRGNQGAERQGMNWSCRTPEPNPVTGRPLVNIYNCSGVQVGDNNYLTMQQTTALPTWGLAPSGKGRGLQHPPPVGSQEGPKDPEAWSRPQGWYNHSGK

RIP2 = molecular target: T2, RIP2 (Homo sapiens (Human), UniProt O43353 1-540); experiment: immunoprecipitation from cell lysates in 6 M urea buffer, western blot
T2 construct: also called RIPK2
T2 sequence (O43353 whole entry): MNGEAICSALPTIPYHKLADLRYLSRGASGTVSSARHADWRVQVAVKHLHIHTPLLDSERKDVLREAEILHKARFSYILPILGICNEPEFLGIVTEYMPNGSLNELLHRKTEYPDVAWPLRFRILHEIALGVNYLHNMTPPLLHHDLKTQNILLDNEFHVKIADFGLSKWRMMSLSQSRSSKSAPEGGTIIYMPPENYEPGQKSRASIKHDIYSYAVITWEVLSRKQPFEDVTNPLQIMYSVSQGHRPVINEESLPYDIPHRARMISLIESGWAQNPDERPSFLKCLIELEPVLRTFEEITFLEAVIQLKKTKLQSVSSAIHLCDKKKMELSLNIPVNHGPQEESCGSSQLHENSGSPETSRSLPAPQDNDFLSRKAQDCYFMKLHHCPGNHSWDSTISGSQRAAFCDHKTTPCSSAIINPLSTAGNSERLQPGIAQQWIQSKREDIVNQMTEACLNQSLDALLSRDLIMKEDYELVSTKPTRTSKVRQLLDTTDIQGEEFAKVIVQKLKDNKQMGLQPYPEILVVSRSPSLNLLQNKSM

TRAF2 = molecular target: T3, TRAF2 (UniProt Q12933 2-501); experiment: as above
T3 sequence (looked up): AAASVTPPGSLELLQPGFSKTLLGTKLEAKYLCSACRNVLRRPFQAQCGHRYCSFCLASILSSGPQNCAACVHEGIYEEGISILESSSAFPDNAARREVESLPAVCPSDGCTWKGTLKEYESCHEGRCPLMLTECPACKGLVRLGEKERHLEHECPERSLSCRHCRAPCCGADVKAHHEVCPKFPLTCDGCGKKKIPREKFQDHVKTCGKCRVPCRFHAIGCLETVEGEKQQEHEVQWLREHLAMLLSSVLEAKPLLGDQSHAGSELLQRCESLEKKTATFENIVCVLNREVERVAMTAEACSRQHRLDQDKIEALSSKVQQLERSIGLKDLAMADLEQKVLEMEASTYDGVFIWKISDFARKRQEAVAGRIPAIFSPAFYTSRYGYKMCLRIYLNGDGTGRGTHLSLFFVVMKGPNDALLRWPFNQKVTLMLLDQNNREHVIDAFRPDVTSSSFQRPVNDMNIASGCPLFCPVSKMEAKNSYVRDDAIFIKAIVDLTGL

XIAP [3] = molecular target: T4, XIAP (UniProt P98170 1-497); experiment: IP from THP1 cells with or without MDP (1 ug/ml, 30 min), 6 M urea lysis; western blot XIAP (label cut to XIA on the sheet)
T4 sequence (P98170 whole entry): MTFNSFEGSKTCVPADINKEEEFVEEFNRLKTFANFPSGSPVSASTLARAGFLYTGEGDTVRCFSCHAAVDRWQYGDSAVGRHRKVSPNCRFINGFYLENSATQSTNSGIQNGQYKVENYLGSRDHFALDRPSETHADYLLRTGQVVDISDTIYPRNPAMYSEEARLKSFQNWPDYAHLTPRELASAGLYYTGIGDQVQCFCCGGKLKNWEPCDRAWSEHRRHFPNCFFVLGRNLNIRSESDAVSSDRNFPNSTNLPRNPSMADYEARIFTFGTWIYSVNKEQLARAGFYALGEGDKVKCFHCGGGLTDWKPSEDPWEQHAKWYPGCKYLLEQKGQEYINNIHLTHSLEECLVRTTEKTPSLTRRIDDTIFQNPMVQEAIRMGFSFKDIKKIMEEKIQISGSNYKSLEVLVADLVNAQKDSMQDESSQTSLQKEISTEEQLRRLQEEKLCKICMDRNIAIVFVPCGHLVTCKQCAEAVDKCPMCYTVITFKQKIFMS

c-IAP1 [4] = molecular target: T5, c-IAP1 (UniProt Q13490 1-618); experiment: IP from THP1 cells with or without MDP (1 ug/ml, 30 min), 6 M urea lysis; western blot c-IAP1
T5 sequence (Q13490 whole entry): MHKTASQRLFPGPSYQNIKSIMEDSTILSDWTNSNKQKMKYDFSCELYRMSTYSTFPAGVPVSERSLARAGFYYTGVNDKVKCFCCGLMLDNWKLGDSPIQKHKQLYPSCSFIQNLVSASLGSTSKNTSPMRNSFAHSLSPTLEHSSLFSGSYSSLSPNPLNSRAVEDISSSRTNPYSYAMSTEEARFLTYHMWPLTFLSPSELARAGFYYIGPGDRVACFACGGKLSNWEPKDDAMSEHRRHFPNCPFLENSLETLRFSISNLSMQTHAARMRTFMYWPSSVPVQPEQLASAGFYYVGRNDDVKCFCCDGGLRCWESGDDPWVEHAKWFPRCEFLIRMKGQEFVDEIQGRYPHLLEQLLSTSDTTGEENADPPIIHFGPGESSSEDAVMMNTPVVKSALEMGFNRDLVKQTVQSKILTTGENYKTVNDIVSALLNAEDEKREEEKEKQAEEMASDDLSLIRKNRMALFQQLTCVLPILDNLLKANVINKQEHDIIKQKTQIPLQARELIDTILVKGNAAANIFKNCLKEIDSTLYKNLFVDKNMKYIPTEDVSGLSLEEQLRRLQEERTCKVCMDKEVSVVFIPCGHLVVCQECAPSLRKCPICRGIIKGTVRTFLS

RIP3 [5] = experiment: IP from HT29 WT or RIP1 KO cells with or without TBZ; western blot RIP3; remark: listed apart in the source
XIAP [6] = molecular target: T4, XIAP; experiment: IP from THP1 cells with or without MDP (1 ug/ml, 30 min), 6 M urea lysis; western blot XIAP
Protocol: (§1) THP1 cells were treated with PBS or MDP (1 μg/ml, 30 min). Cells were lysed in 6M urea buffer and immunoprecipitated using indicated RIP2-ubiquitin, K63-linear ubiquitin chain bispecific or control antibodies.

RIP1 = molecular target: T6, RIP1; experiment: IP with K63-Lin from THP1 cells treated with PBS, TNF, MDP or LPS, 6 M urea lysis; western blot RIP1
T6 construct: also called non-ubiquitinated RIP1 (endogenous, human cell lines); RIPK1
T6 single chain: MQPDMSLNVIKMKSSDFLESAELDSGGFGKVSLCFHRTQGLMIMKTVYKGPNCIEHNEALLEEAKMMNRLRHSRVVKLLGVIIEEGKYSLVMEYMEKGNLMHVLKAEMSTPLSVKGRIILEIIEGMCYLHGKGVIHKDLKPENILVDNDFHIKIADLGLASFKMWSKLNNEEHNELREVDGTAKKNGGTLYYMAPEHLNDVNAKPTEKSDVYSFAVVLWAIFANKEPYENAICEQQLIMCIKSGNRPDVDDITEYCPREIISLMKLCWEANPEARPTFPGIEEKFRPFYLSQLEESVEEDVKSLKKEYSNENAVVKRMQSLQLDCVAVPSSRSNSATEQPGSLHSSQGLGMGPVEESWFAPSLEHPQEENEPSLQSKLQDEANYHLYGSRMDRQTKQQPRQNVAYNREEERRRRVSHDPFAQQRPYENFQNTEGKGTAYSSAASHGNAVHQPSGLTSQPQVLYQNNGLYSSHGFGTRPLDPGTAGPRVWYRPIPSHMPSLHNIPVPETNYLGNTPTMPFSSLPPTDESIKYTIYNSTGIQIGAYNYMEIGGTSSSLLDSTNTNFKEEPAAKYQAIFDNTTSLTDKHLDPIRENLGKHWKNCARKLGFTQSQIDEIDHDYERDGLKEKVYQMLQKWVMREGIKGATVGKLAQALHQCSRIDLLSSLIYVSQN

c-IAP1 [7] = molecular target: T5, c-IAP1; experiment: IP from THP1 cells with or without MDP (1 ug/ml, 30 min), 6 M urea lysis; western blot c-IAP1; remark: listed apart in the source
Protocol: as §1

XIAP [8] = molecular target: T4, XIAP; experiment: immunoprecipitation from MDP-treated THP1 lysates in 6 M urea buffer, western blot
Protocol: as §1

c-IAP1 [9] = molecular target: T5, c-IAP1; experiment: as above
Protocol: as §1

Measured: binding result

T1 sequence (chain, as listed by the source limits assumed, chain 1 of 2, other chains not shown): as the sequence (O43353 whole entry) above

B1: anti-RIP1/anti-K63 bispecific antibody (bispecific antibody, human IgG1, kappa)
heavy 1: not shown
light 1: DIQMTQSPSSLSASVGDRVTITCRASQSVSSAVAWYQQKPGEAPKLLIYSARSLYSGVPSRFSGSRSGTDFTLTISSLQPEDFATYYCQQYSSYSSLFTFGQGTKVEIKRTVAAPSVFIFPPSDEQLKSGTASVVCLLNNFYPREAKVQWKVDNALQSGNSQESVTEQDSKDSTYSLSSTLTLSKADYEKHKVYACEVTHQGLSSPVTKSFNRGEC
heavy 2: not shown
light 2: NIMMTQSPSSLAVSAGQKVTMNCKSSQNVIYTSNQRNYLAWYQQKPGQSPKLLIYWASTRVSGVPDRFTGSGSGTDFTLTISSVEVEDLAVYYCHQYLSSWTFGGGTKVEIKRTVAAPSVFIFPPSDEQLKSGTASVVCLLNNFYPREAKVQWKVDNALQSGNSQESVTEQDSKDSTYSLSSTLTLSKADYEKHKVYACEVTHQGLSSPVTKSFNRGEC
notes: also called RIP1-K63; RIP1-K63 ubiquitin chain bispecific antibody
no binding: [1] | RIP3 [2] | RIP2 | TRAF2

B2: anti-RIP2/anti-K63 bispecific antibody (bispecific antibody, human IgG1, kappa)
heavy 1: not shown
light 1: DIQMTQSPSSLSASVGDRVTITCRASQSVSSAVAWYQQKPGEAPKLLIYSARSLYSGVPSRFSGSRSGTDFTLTISSLQPEDFATYYCQQYSSYSSLFTFGQGTKVEIKRTVAAPSVFIFPPSDEQLKSGTASVVCLLNNFYPREAKVQWKVDNALQSGNSQESVTEQDSKDSTYSLSSTLTLSKADYEKHKVYACEVTHQGLSSPVTKSFNRGEC
heavy 2: not shown
light 2: not shown
notes: also called RIP2-K63
no binding: XIAP [3] | c-IAP1 [4]

B3: anti-RIP1/anti-M1 bispecific antibody (bispecific antibody, human IgG1, kappa)
heavy 1: not shown
light 1: DIQMTQSPSSLSASVGDRVTITCRASQDVSTAVAWYQQKPGKAPKLLIYSAKFLYSGVPSRFSGSGSGTDFTLTISSLQPEDFATYYCQQSYTTPPTFGQGTKVEIKRTVAAPSVFIFPPSDEQLKSGTASVVCLLNNFYPREAKVQWKVDNALQSGNSQESVTEQDSKDSTYSLSSTLTLSKADYEKHKVYACEVTHQGLSSPVTKSFNRGEC
heavy 2: not shown
light 2: NIMMTQSPSSLAVSAGQKVTMNCKSSQNVIYTSNQRNYLAWYQQKPGQSPKLLIYWASTRVSGVPDRFTGSGSGTDFTLTISSVEVEDLAVYYCHQYLSSWTFGGGTKVEIKRTVAAPSVFIFPPSDEQLKSGTASVVCLLNNFYPREAKVQWKVDNALQSGNSQESVTEQDSKDSTYSLSSTLTLSKADYEKHKVYACEVTHQGLSSPVTKSFNRGEC
notes: also called RIP1-Lin; RIP1-Lin ubiquitin chain bispecific antibody
no binding: RIP3 [5] | RIP2 | TRAF2

B4: anti-M1/anti-K63 bispecific antibody (bispecific antibody, V domains shown)
VH 1: EVQLVESGGGLVQPGGSLRLSCAASGFNVKTGLIHWVRQAPGKGLEWVAYITPYYGSTSYADSVKGRFTISADTSKNTAYLQMNSLRAEDTAVYYCAREYYRWYTAIDYWGQGTLVTVSS
VL 1: DIQMTQSPSSLSASVGDRVTITCRASQSVSSAVAWYQQKPGEAPKLLIYSARSLYSGVPSRFSGSRSGTDFTLTISSLQPEDFATYYCQQYSSYSSLFTFGQGTKVEIK
VH 2: EVQLVESGGGLVQPGGSLRLSCAASGFTFSNTYISWVRQAPGKGLEWVASITPSSGQTDYADSVKGRFTISADTSKNTAYLQMNSLRAEDTAVYYCARTWLLRWVMDLWGQGTLVTVSS
VL 2: DIQMTQSPSSLSASVGDRVTITCRASQDVSTAVAWYQQKPGKAPKLLIYSAKFLYSGVPSRFSGSGSGTDFTLTISSLQPEDFATYYCQQSYTTPPTFGQGTKVEIK
notes: also called K63-Lin; K63-linear ubiquitin chain bispecific antibody
no binding: XIAP [6] | RIP3 [5] | RIP1 | c-IAP1 [7]

B5: anti-RIP2/anti-M1 bispecific antibody (bispecific antibody, human IgG1, kappa)
heavy 1: not shown
light 1: DIQMTQSPSSLSASVGDRVTITCRASQDVSTAVAWYQQKPGKAPKLLIYSAKFLYSGVPSRFSGSGSGTDFTLTISSLQPEDFATYYCQQSYTTPPTFGQGTKVEIKRTVAAPSVFIFPPSDEQLKSGTASVVCLLNNFYPREAKVQWKVDNALQSGNSQESVTEQDSKDSTYSLSSTLTLSKADYEKHKVYACEVTHQGLSSPVTKSFNRGEC
heavy 2: not shown
light 2: not shown
notes: also called RIP2-Lin
no binding: XIAP [8] | c-IAP1 [9]
